Series [1] has as its target WRKY33_C;SIB1 (SIB1 11-100) (Arabidopsis thaliana;Arabidopsis …, UniProt Q8S8P5;Q9LDH1 345-422;11-100, |). The series can be described thus: EMSA; SIB1:WRKY33_C 2:1; ternary complex; Kd not fittable; EMSA: NMR buffer (composition not given in material) with 100 mM NaCl, 1.0 ng dsDNA in 20 ul, room temperature 20 min, SIB1:WRKY33_C 2:1; gel in 0.5x TBE, GelRed stain. The following applies: protein: recombinant;recombinant; tags: C-terminal 6xHis;C-terminal 6xHis; copies: 1;1; blunt.

Series [2] addresses WRKY33_C;SIB1mini (Arabidopsis thaliana;Arabidopsis …, UniProt Q8S8P5;Q9LDH1 345-422;46-69, |). The experiment in a line: EMSA; SIB1mini present; Kd not fittable; EMSA: NMR buffer (composition not given in material) with 100 mM NaCl, 1.0 ng dsDNA in 20 ul, room temperature 20 min, SIB1:WRKY33_C 2:1; gel in 0.5x TBE, GelRed stain. The following applies: tags: C-terminal 6xHis;; copies: 1;1; blunt. A general note: Mobility shift assays separate free from complexed probe on a gel.

WRKY33_C;SIB1 (SIB1 11-100), sequence (Q8S8P5 345-422, chain 1 of 2): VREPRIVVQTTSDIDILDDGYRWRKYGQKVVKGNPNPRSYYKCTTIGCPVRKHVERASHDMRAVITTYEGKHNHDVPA
WRKY33_C;SIB1 (SIB1 11-100), sequence (Q9LDH1 11-100, chain 2 of 2): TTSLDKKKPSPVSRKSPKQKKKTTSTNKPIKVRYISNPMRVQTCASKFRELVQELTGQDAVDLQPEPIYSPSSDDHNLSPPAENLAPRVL
WRKY33_C;SIB1mini, sequence (Q8S8P5 345-422, chain 1 of 2): as the sequence (Q8S8P5 345-422, chain 1 of 2) above
WRKY33_C;SIB1mini, sequence (Q9LDH1 46-69, chain 2 of 2): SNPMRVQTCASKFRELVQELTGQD

B1: W-box DNA (dsDNA)
DNA 1: AAAGTTGACCAA
DNA 2: TTGGTCAACTTT
As to B1, the binding signal is ~95 % DNA bound at 1:1 molar ratio (WRKY33_C alone ~80%) in series [1] and ~95 % DNA bound at 1:1 molar ratio (WRKY33 alone ~80%) in series [2].

The values above are taken from article PMC11088704, “Structural basis for the regulation of plant transcription factor WRKY33 by the VQ protein SIB1” (Communications Biology, 2024).
